The test has as its target LPHN2-ICL1-Nluc (UniProt O95490). Description: FRET or BRET. In general terms: Bioluminescence resonance energy transfer reports proximity on the nanometre scale.

LPHN2-ICL1-Nluc, sequence (O95490 26-1459): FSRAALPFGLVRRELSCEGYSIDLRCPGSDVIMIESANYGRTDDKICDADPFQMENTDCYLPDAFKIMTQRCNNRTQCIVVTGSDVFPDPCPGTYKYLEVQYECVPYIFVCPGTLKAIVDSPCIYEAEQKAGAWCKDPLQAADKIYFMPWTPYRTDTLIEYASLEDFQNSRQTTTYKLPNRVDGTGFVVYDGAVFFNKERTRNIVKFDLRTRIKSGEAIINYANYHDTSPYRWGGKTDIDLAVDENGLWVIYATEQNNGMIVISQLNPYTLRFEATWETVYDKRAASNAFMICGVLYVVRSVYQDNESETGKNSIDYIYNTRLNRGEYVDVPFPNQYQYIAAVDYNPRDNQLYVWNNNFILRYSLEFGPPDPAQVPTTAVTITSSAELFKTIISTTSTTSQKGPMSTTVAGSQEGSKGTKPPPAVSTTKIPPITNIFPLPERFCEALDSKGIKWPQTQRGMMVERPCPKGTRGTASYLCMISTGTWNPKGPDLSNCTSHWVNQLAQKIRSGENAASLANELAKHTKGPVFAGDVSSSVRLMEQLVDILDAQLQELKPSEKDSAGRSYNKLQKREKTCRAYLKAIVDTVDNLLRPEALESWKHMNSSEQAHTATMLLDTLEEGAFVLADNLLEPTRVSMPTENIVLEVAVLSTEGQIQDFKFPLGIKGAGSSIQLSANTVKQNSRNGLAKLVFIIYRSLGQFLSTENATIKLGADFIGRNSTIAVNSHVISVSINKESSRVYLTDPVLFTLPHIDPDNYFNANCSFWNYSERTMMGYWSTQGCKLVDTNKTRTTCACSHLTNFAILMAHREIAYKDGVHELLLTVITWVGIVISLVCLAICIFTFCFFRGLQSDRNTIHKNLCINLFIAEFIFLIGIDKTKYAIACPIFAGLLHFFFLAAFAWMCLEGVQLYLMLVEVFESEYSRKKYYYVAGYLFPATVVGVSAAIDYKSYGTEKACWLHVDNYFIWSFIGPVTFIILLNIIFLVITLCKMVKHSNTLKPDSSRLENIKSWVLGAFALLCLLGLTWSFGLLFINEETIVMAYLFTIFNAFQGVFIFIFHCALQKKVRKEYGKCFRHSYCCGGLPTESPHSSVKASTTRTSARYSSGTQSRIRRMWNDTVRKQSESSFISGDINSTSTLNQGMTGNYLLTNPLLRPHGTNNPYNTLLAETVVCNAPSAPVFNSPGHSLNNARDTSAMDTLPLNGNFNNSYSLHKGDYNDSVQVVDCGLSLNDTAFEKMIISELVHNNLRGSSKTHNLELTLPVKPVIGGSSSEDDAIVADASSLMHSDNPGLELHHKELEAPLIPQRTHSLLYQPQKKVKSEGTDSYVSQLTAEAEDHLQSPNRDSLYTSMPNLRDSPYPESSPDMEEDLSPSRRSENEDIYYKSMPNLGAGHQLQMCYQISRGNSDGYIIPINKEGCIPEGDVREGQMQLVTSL

“TMC1-C-YFP (from UniProt Q8TDI8 1-760) (natural protein)”: the EC50 of force for the increase of the BRET signal turned out to be 5.2 pN and the stoichiometry N (TMC1 per LPHN2) is 2.
